From paper PMC5462994

Legend:
[1] = target: Recombinant M.tb H37Rv GAPDH, wild type (Mycobacterium tuberculosis H37Rv) (UniProt P9WN83); assay: ELISA; solid phase binding assay: 2 ug/well GAPDH coated on polystyrene wells in PBS pH 7.4; 7.5-1,000 nM biotinylated Lf in PBS with 1% fish skin gelatin, 25°C, 2 h; detected with anti-biotin; one-site specific binding fit
[2] = target: Transferrin (Homo sapiens) (UniProt P02787); conditions: cited from earlier work
UniProt P02787, sequence (P02787 20-698): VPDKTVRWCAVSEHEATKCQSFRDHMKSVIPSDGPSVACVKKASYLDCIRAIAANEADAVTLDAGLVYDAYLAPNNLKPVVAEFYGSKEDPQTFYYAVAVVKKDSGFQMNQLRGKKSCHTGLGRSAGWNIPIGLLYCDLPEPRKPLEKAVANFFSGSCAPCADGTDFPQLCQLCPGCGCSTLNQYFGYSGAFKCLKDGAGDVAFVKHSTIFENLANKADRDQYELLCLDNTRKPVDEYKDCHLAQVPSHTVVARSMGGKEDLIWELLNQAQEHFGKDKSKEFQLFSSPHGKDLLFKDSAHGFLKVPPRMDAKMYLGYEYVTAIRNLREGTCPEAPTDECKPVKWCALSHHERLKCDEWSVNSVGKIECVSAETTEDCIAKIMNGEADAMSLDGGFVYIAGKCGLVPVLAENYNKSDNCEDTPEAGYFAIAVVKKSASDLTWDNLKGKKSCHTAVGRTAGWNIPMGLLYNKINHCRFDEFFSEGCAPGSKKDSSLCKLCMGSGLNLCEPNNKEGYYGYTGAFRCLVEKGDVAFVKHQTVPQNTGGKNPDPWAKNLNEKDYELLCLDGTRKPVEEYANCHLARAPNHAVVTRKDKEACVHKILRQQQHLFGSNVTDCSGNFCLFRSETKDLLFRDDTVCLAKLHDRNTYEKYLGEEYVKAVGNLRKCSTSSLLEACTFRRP

GAPDH, sequence (P9WN83 whole entry): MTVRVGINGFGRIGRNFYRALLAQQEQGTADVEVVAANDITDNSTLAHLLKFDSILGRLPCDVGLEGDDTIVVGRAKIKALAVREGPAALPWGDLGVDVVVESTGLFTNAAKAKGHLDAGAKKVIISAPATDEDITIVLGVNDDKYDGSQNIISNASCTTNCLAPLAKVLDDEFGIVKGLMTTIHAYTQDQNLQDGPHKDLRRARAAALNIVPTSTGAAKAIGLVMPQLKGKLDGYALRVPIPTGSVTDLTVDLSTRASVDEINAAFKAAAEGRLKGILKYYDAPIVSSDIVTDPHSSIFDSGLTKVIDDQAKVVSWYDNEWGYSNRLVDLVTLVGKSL

Row | Substance | Kd [1] | Kd [2]
1 | Biotinylated human lactoferrin (natural protein) | 31.7 nM | 
2 | GAPDH (from UniProt P9WN83) |  | 160 nM
